Each block holds one binder with its values, some of them ahead of it.
What was measured:
[1] = biological target: T1, human Fzd2 hinge region (human, UniProt Q14332 150-201); experiment: phage ELISA
T1 construct: also called hFzd2L; 2L

[2] = biological target: Fzd2 CRD (UniProt Q14332 24-155); experiment: BLI (Octet Red 96), biotinylated Fzd2 CRD on streptavidin biosensor
Protocol: Binding kinetics of monospecific Fzd binders to either (CRD) or the extracellular hinge region (hinge) was determined by bio-layer interferometry (BLI) using Octet Red 96 (PALL ForteBio, Fremont, Calif.) instruments at 30° C., 1000 rpm with streptavidin (SA) biosensors. N-terminal biotinylated Fzd1 or Fzd2 CRD and Fzd1 or Fzd 2 hinge proteins were captured on the SA biosensor. Following capture of biotinylated-Fzd1 or Fzd2, the SA biosensor with captured […] was dipped into wells containing the relevant antibodies at 7 different concentrations in running buffer plus a well with only running buffer as a reference channel. KD was determined by global fitting. As shown in FIGS. 4A-4H these antibody fusion proteins only bound to either Fzd1 or Fzd2 protein with the hinge region, and not to the CRD domains alone.

[3] = biological target: T2, human Fzd8 cysteine rich domain (CRD) (human, UniProt Q9H461 28-153, limits assumed); experiment: BLI, Fab on captured biotinylated Fzd CRD; *** = 100 nM > KD >= 10 nM
T2 construct: domain: cysteine rich domain (CRD); C-terminally biotinylated in the BLI assay; also called hFzd8; hFzd8 (CRD)
T2 sequence (looked up): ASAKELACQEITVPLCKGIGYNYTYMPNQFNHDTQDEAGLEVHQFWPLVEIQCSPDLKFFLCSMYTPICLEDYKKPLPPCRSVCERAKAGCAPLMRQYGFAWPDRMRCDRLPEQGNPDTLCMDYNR
Protocol: (§1) C-terminal biotinylated Fzd CRD recombinant protein was diluted to 20 nM in the running buffer (PBS, 0.05% Tween-20, 0.5% BSA, pH 7.2) and captured to the SA biosensor until coupling length reached 0.2 nm. Following capture of the Fzd CRD, the SA biosensor with captured biotinylated-Fzd CRD was dipped into wells containing the relevant antibody fragment at 7 different concentrations (0, 1.37, 4.12, 12.4, 37, 111.1, 333.3, 1000 nM) in running buffer, plus a well with only running buffer as a reference channel. KD was determined by global fitting, 1:1 binding model according to manufacturer recommended settings.

[4] = biological target: T3, mouse Fzd10 CRD (mouse, UniProt Q8BKG4 22-153, limits assumed); experiment: BLI
T3 construct: domain: cysteine rich domain (CRD)
T3 sequence (looked up): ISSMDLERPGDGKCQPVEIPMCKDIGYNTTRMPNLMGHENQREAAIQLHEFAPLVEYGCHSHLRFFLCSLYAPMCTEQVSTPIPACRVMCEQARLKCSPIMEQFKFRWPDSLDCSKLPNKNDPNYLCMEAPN
Protocol: as §1

[5] = biological target: T4, mouse Fzd9 CRD (mouse, UniProt Q9R216 24-158, limits assumed); experiment: BLI
T4 construct: domain: cysteine rich domain (CRD)
T4 sequence (looked up): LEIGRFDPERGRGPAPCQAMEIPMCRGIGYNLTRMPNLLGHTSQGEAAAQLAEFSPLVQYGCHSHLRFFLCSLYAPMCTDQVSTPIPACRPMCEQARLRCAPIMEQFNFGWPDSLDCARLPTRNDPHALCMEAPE
Protocol: as §1

[6] = biological target: mouse Fzd1 CRD (mouse, UniProt O70421 100-227); experiment: BLI
Protocol: as §1

[7] = biological target: T5, mouse Fzd5 CRD (mouse, UniProt Q9EQD0 27-152, limits assumed); experiment: BLI
T5 construct: domain: cysteine rich domain (CRD)
T5 sequence (looked up): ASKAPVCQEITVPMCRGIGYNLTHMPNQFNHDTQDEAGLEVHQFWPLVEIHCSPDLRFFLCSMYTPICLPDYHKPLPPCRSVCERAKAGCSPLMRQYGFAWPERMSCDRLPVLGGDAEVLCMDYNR
Protocol: as §1

[8] = biological target: mouse Fzd2 CRD (mouse, UniProt Q9JIP6 29-160); experiment: BLI
Protocol: as §1

[9] = biological target: T6, human Fzd9 CRD (human, UniProt O00144 23-157, limits assumed); experiment: BLI
T6 construct: domain: cysteine rich domain (CRD)
T6 sequence (looked up): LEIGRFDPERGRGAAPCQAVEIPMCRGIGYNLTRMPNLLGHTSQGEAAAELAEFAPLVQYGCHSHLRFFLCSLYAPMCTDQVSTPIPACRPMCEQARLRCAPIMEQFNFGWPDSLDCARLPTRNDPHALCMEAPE
Protocol: as §1

[10] = biological target: T7, mouse Fzd4 CRD (mouse, UniProt Q61088 37-163, limits assumed); experiment: BLI
T7 construct: domain: cysteine rich domain (CRD)
T7 sequence (looked up): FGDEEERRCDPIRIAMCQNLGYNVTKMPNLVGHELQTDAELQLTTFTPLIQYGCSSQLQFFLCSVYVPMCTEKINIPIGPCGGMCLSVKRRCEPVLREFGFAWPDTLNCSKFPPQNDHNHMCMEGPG
Protocol: as §1

[11] = biological target: T8, human Fzd5 CRD (human, UniProt Q13467 27-152, limits assumed); experiment: BLI
T8 construct: domain: cysteine rich domain (CRD)
T8 sequence (looked up): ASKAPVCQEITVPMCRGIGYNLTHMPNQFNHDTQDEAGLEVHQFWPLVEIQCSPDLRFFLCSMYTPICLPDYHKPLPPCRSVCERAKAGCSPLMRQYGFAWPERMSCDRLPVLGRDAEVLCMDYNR
Protocol: as §1

[12] = biological target: T9, human Fzd4 CRD (human, UniProt Q9ULV1 37-163, limits assumed); experiment: BLI
T9 construct: domain: cysteine rich domain (CRD)
T9 sequence (looked up): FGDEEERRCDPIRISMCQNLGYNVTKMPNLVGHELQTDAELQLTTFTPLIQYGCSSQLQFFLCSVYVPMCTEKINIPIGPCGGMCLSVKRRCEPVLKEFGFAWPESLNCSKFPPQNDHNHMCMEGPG
Protocol: as §1

[13] = biological target: human Fzd1 CRD (human, UniProt Q9UP38 105-232); experiment: BLI
Protocol: as §1

[14] = biological target: T10, human Fzd10 CRD (human, UniProt Q9ULW2 21-152, limits assumed); experiment: BLI
T10 construct: domain: cysteine rich domain (CRD)
T10 sequence (looked up): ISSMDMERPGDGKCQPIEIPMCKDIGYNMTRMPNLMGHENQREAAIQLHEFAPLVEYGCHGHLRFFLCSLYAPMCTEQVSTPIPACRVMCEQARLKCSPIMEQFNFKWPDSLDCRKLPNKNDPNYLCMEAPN
Protocol: as §1

[15] = biological target: T11, mouse Fzd6 CRD (mouse, UniProt Q61089 19-134, limits assumed); experiment: BLI
T11 construct: domain: cysteine rich domain (CRD)
T11 sequence (looked up): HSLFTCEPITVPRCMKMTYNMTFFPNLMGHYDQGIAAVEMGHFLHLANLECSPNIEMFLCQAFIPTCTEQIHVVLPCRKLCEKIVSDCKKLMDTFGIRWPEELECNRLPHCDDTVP
Protocol: as §1

[16] = biological target: mouse Fzd7 CRD (mouse, UniProt Q61090 33-165); experiment: BLI
Protocol: as §1

[17] = biological target: human Fzd2 CRD (human, UniProt Q14332 24-155); experiment: BLI
Protocol: as §1

[18] = biological target: T12, human Fzd6 CRD (human, UniProt O60353 19-134, limits assumed); experiment: BLI
T12 construct: domain: cysteine rich domain (CRD)
T12 sequence (looked up): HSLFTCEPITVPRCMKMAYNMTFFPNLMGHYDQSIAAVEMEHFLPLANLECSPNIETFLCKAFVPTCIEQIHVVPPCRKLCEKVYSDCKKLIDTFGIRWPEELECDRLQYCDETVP
Protocol: as §1

[19] = biological target: human Fzd7 CRD (human, UniProt O75084 33-165); experiment: BLI
Protocol: as §1

[20] = biological target: T13, mouse Fzd3 CRD (mouse, UniProt Q61086 23-138, limits assumed); experiment: BLI
T13 construct: domain: cysteine rich domain (CRD)
T13 sequence (looked up): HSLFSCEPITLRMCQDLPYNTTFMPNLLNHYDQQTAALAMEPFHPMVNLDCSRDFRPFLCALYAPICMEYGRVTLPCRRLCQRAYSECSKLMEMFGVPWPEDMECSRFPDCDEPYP
Protocol: as §1

[21] = biological target: T14, human Fzd3 CRD (human, UniProt Q9NPG1 23-138, limits assumed); experiment: BLI
T14 construct: domain: cysteine rich domain (CRD)
T14 sequence (looked up): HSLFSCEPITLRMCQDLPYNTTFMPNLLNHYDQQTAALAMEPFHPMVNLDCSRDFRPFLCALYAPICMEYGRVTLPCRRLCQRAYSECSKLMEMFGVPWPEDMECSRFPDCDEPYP
Protocol: as §1

binding result [1]: binds
B1: 031S-B02 (antibody, V domains shown)
VH: EVQLLESGGGLVQPGGSLRLSCAASGFTFSSYWMSWVRQAPGKGLEWVSAIGGSGANAYYADSVKGRFTISRDNSKNTLYLQMNSLRAEDTAVYYCVRDTNWAFDLWGQGTMVTVSS
VL: EIVMTQSPATLSVSPGERATLSCRASQSVSGSYLAWYQQKPGQAPRLLIYGASTRATGIPARFSGSGSGTEFTLTISSLQSEDFAVYYCQQYGSSPLTFGQGTKVEIK
notes: also called 31SB2

binding result [2]: no binding
B2: 031S-B02 Fab (Fab, V domains shown)
VH: EVQLLESGGGLVQPGGSLRLSCAASGFTFSSYWMSWVRQAPGKGLEWVSAIGGSGANAYYADSVKGRFTISRDNSKNTLYLQMNSLRAEDTAVYYCVRDTNWAFDLWGQGTMVTVSS
VL: EIVMTQSPATLSVSPGERATLSCRASQSVSGSYLAWYQQKPGQAPRLLIYGASTRATGIPARFSGSGSGTEFTLTISSLQSEDFAVYYCQQYGSSPLTFGQGTKVEIK
notes: also called 31SB2

KD [3]: 10 to 100 nM
binding result [4]: no binding (tested: 1000 nM)
binding result [5]: no binding (tested: 1000 nM)
binding result [6]: no binding (tested: 1000 nM)
binding result [7]: no binding (tested: 1000 nM)
binding result [8]: no binding (tested: 1000 nM)
binding result [9]: no binding (tested: 1000 nM)
binding result [10]: no binding (tested: 1000 nM)
binding result [11]: no binding (tested: 1000 nM)
binding result [12]: no binding (tested: 1000 nM)
binding result [13]: no binding (tested: 1000 nM)
binding result [14]: no binding (tested: 1000 nM)
binding result [15]: no binding (tested: 1000 nM)
binding result [16]: no binding (tested: 1000 nM)
binding result [17]: no binding (tested: 1000 nM)
binding result [18]: no binding (tested: 1000 nM)
binding result [19]: no binding (tested: 1000 nM)
binding result [20]: no binding (tested: 1000 nM)
binding result [21]: no binding (tested: 1000 nM)
B3: 027S-E5 Fab (Fab, V domains shown)
VH: QVQLEQSGAEVKKPGASVKVSCKASGGTFSSYAISWVRQAPGQGLEWMGMINPSGGSTTYAQKFQGRVTMTRDTSTSTVYMELSSLRSEDTAVYYCARQAGLHCSSTSCYLGNWFDPWGQGTLVTVSS
VL: DIQMTQSPSSLSASVGDRVTITCRASQGITKSLAWYQQKPGKAPKLLIYAASNLATGVPSRFSGSGSGTDFTLTISSLQPEDFATYYCQQYNTFPITFGQGTRLEIKR
notes: Fab chains as printed, heavy chain with hexa-histidine tag; also called 027S-E05

Source: patent US20220275095A1 (SURROZEN OPERATING, published 2022)
